From paper PMC4242682, “The Cpn10(1) Co-Chaperonin of A. thaliana Functions Only as a Hetero-Oligomer with Cpn20” (PLoS ONE, 2014)
Numbering of substitutions follows the chain as printed.

T1: Cpn20 mutant G32A (A. thaliana, UniProt O65282 51-253, G32A)
T1 sequence (looked up): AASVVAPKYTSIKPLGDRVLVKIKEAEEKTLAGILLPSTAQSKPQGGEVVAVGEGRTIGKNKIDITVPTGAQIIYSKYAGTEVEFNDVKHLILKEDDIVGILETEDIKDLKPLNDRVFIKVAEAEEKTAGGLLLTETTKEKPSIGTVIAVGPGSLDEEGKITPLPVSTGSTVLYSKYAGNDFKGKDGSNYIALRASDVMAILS

B1: Cpn20 co-chaperonin of A. thaliana (natural protein, UniProt O65282 51-253, looked up)
chain: T1 sequence (looked up) with A32G
notes: Cpn20, A. thaliana chloroplast co-chaperonin of two Cpn10-like domains joined head-to-tail, At5g20720
B2: Cpn10(2) co-chaperonin of A. thaliana (natural protein, UniProt O80504 40-139, looked up)
chain: IKAISTKWEPTKVVPQADRVLVRLEDLPIKSSGGVLLPKAAVKFERYLTGEIISVGSEVGQQVGPGKRVLFSDVSAYEVDLGTDARHCFCKESDLLALVE
notes: Cpn10(2), A. thaliana chloroplast co-chaperonin, At2g44650
B3: Cpn10(1) co-chaperonin of A. thaliana, lacking the N-terminal chloroplast transit peptide (natural protein, UniProt Q9M1C2 43-138, looked up)
chain: STKWEPAKVVPQADRVLVRLEVLPEKSSGGVLLPKSAVKFERYLTGEVVSVGSEVGEVEPGKKVLFSDMSAYEVDFGTEDAKHCFCKESDLLAIVQ
notes: Cpn10(1), A. thaliana chloroplast co-chaperonin, At3g60210, without the transit peptide; Serine 43 chosen as the first amino acid; Cloned between XhoI and NdeI of pET22b+; source: E. coli BL21(T7+), pET22b+, purified (Mono-Q, Superdex 200, Superdex 75)
B4: Cpn60α2 (natural protein)
chain: not shown
notes: additional glycine-serine at the N-terminus; Cpn60α2, A. thaliana chloroplast chaperonin α subunit, At2g28000; alanine 46 chosen as the first amino acid of the mature protein; The vector codes for an octa-histidine tag followed by a TEV site
B5: GroES (natural protein, E. coli, UniProt P0A6F9 1-97, looked up)
chain: MNIRPLHDRVIVKRKEVETKSAGGIVLTGSAAAKSTRGEVLAVGNGRILENGEVKPLDVKVGDIVIFNDGYGVKSEKIDNEEVLIMSESDILAIVEA
notes: GroES, the co-chaperonin (Cpn10) of E. coli

Assays:
[1] = molecular target: the molecule itself; experiment: native gel or EMSA; co-chaperonins at 100 µM (protomer) mixed at various ratios, 5 min at room temperature, 6% native acrylamide gel; no Cpn60 or ATP
[2] = molecular target: the molecule itself; experiment: cross-linking; 45 µM co-chaperonin with 1 mM DSS at room temperature, 50 mM Na-HEPES pH 7.5, 10 mM MgCl2, 100 mM KCl; time course; SDS gradient gel, Coomassie
[3] = molecular target: T1, Cpn20 mutant G32A; experiment: cell-based or functional assay
[4] = molecular target: B1; experiment: cell-based or functional assay
[5] = molecular target: T2, Cpn60β3 (A. thaliana, UniProt P21240 55-600); experiment: SEC; reconstitution of 150 µM Cpn60α2 and 100 µM Cpn60β3 with 50 µM mt-cpn10, 5 mM ATP, 50 mM Tris-HCl pH 8, 300 mM NaCl, 10 mM MgCl2, 16 mM KCl, 2 mM DTT, 1 h 30°C; oligomers separated from monomers on Superdex 200 at room temperature; conditions: both partners purified
T2 construct: Cpn60β3, A. thaliana chloroplast chaperonin β subunit, At1g55490
T2 sequence (P21240 55-600): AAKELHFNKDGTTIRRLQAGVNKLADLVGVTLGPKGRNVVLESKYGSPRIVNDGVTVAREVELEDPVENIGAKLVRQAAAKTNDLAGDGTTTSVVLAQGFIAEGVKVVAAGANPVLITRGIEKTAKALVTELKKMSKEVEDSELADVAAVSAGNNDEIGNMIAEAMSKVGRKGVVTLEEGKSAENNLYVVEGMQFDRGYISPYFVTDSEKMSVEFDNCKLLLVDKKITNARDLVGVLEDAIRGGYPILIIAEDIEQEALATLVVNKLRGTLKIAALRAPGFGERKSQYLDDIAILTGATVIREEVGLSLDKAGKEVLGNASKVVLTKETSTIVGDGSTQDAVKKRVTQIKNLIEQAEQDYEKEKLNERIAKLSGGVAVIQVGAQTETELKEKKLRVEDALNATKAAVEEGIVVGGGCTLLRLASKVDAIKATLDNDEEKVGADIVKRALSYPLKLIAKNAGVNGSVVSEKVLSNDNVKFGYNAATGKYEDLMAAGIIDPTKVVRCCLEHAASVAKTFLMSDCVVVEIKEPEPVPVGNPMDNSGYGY

Binder: B1
binding result [1]: binds

Binder: B2
stoichiometry N [2]: 7 | refolding of urea-denatured MDH by Cpn60αβ, Cpn10(2) titrated on a background of 20 µM G32A; at a 0.25 ratio of [co-chaperonin]/[Cpn60αβ], against 18.06% with Cpn10(2) alone [3]: 29.1%

Binder: B3
stoichiometry N [2]: 2 | refolding of urea-denatured MDH by GroEL with the combination of G32A and Cpn10(1), each inactive alone (% of GroEL with saturating GroES) [3]: ~75% | refolding of urea-denatured MDH by chloroplast Cpn60αβ with the combination of G32A and Cpn10(1), each inactive alone (% of Cpn60αβ with mt-cpn10) [3]: ~40% | refolding of urea-denatured MDH by 10 µM Cpn60αβ, Cpn20 titrated (0.625–20 µM) with constant 20 µM Cpn10(1); against 51.39% with Cpn20 alone (% of Cpn60αβ with mt-cpn10) [4]: 77.8%

Binder: B4
binding result [5]: binds

Binder: B5
stoichiometry N [2]: 7
